Test results taken from patent EP2061494B1 (Universita' Degli Studi di Torino, dated 2012).

Biological target: Src kinase (endogenous protein of MCF7 cells) (human, UniProt P12931 2-536)
Assay: cell-based or functional assay

Src activity induced by adhesion to fibronectin (in vitro kinase assay) after shRNA down-regulation of p140Cap: 5 fold
B1: p140Cap (endogenous protein of MCF7 human breast carcinoma cell extracts) (other, UniProt Q9C0H9 1-1183, looked up)
chain: MGNAPSQDPERSSPPMLSADDAEYPREYRTLGGGGGGGSGGRRFSNVGLVHTSERRHTVIAAQSLEALSGLQKADADRKRDAFMDHLKSKYPQHALALRGQQDRMREQPNYWSFKTRSSRHTQGAQPGLADQAAKLSYASAESLETMSEAELPLGFSRMNRFRQSLPLSRSASQTKLRSPGVLFLQFGEETRRVHITHEVSSLDTLHALIAHMFPQKLTMGMLKSPNTAILIKDEARNVFYELEDVRDIQDRSIIKIYRKEPLYAAFPGSHLTNGDLRREMVYASRESSPTRRLNNLSPAPHLASGSPPPGLPSGLPSGLQSGSPSRSRLSYAGGRPPSYAGSPVHHAAERLGGAPAAQGVSPSPSAILERRDVKPDEDLASKAGGMVLVKGEGLYADPYGLLHEGRLSLAAAAGDPFAYPGAGGLYKRGSVRSLSTYSAAALQSDLEDSLYKAAGGGGPLYGDGYGFRLPPSSPQKLADVAAPPGGPPPPHSPYSGPPSRGSPVRQSFRKDSGSSSVFAESPGGKTRSAGSASTAGAPPSELFPGPGERSLVGFGPPVPAKDTETRERMEAMEKQIASLTGLVQSALLRGSEPETPSEKIEGSNGAATPSAPCGSGGRSSGATPVSGPPPPSASSTPAGQPTAVSRLQMQLHLRGLQNSASDLRGQLQQLRKLQLQNQESVRALLKRTEAELSMRVSEAARRQEDPLQRQRTLVEEERLRYLNDEELITQQLNDLEKSVEKIQRDVSHNHRLVPGPELEEKALVLKQLGETLTELKAHFPGLQSKMRVVLRVEVEAVKFLKEEPQRLDGLLKRCRGVTDTLAQIRRQVDEGVWPPPNNLLSQSPKKVTAETDFNKSVDFEMPPPSPPLNLHELSGPAEGASLTPKGGNPTKGLDTPGKRSVDKAVSVEAAERDWEEKRAALTQYSAKDINRLLEETQAELLKAIPDLDCASKAHPGPAPTPDHKPPKAPHGQKAAPRTEPSGRRGSDELTVPRYRTEKPSKSPPPPPPRRSFPSSHGLTTTRTGEVVVTSKKDSAFIKKAESEELEVQKPQVKLRRAVSEVARPASTPPIMASAIKDEDDEDRIIAELESGGGSVPPMKVVTPGASRLKAAQGQAGSPDKSKHGKQRAEYMRIQAQQQATKPSKEMSGSNETSSPVSEKPSASRTSIPVLTSFGARNSSISF
